Changes are numbered by the printed parent chain.
Assays:
[1] = target: feline LFA-1 (CD11a/CD18 heterodimer) (feline); test: cell binding assay on feline MCH-4 cells, purified antibody; against chimeric #1
[2] = target: feline LFA-1 (CD11a/CD18 heterodimer) (feline); test: cell binding assay on feline MCH-4 cells, purified antibody
[3] = target: feline LFA-1 (CD11a/CD18 heterodimer) (feline); test: cell binding assay on feline MCH-4 cells, CHO supernatant; against chimeric #1
[4] = target: feline LFA-1 (CD11a/CD18 heterodimer) (feline); test: cell binding assay on feline MCH-4 cells, CHO supernatant, HRP anti-feline IgG
[5] = target: feline LFA-1 (CD11a/CD18 heterodimer) (feline, UniProt A0ABI8A8D3 24-1171; A0ABI7ZVN3 67-787); test: as above

B1: Felinized HC 3+Felinized LC 2 (#15) antibody: 7301 (Felinized HC 3) + 7303 (Felinized LC 2) (antibody, IgG1)
heavy: QVQLVQSGAEVRKPGASVKIFCKASGYTFTSYYIHWLRQTPEQGREWIGWIYVGDGNTRYNEKFQGRLTLTADKSTSTAYMELSSLRSADTAIYFCARGGNGYFDYWGQDTLVTVSSDIVMTQTPLSLSVTPGEPASISCRASQDVSTALNWYLQKPGQSPRLLIYWASNRHSGVPDRFSGSGSGTDYTLRISRVEADDVGVYYCQQHYSSSLTFGPGTKLEI
light: B1 heavy with K13T, L37V, T40S, E42A, I48M, R59K, K63R, I93M, D110G, T111A
Average fold change over chimeric [1]: 0.76 fold
OD450 at 0.1 ug [2]: 0.86 OD450
OD450 at 1 ug [2]: 1.29 OD450
fold less affinity than the chimeric [3]: 3 fold
Relative antigen binding (normalized to parental antibody) (relative to parental) [4]: 0.3

B2: antibody #16: 7301 (Felinized HC 3) + 7304 (Felinized LC 3) (antibody)
heavy: B1 heavy
light: B1 heavy with K13T, L37V, T40S, E42A, I48M, R59K, K63R, I93M, D110G, T111A
Relative antigen binding (normalized to parental antibody) (relative to parental) [4]: 0.05

B3: antibody #14: 7301 (Felinized HC 3) + 7302 (Felinized LC 1) (antibody, IgG1)
heavy: B1 heavy
light: B1 heavy
notes: Fully felinized, feline IgG1/kappa; tested as CHO supernatant
Relative antigen binding (normalized to parental antibody) [5]: 0.06 relative to parental

B4: antibody #10: 7300 (Felinized HC 2) + 7302 (Felinized LC 1) (antibody)
heavy: B1 heavy with R45L, I48M, E62Q
light: B1 heavy
Relative antigen binding (normalized to parental antibody) (relative to parental) [4]: 0.05

B5: antibody #6: 7299 (Felinized HC 1) + 7302 (Felinized LC 1) (antibody, IgG1)
heavy: B1 heavy with R45L, I48M, E62Q
light: B1 heavy
Relative antigen binding (normalized to parental antibody) (relative to parental) [4]: 0.05

From patent US20140348829A1 (CYTODYN, published 2014)
